# Changes are numbered by the printed parent chain.
# T1: human sodium-dependent phosphate transporter 2B (NaPi2b) (human, UniProt O95436 1-690)
# T1 construct: UniProt ID is given as 095436 [sic]; also called hNaPi2b; Hu NaPi2b
# T1 sequence: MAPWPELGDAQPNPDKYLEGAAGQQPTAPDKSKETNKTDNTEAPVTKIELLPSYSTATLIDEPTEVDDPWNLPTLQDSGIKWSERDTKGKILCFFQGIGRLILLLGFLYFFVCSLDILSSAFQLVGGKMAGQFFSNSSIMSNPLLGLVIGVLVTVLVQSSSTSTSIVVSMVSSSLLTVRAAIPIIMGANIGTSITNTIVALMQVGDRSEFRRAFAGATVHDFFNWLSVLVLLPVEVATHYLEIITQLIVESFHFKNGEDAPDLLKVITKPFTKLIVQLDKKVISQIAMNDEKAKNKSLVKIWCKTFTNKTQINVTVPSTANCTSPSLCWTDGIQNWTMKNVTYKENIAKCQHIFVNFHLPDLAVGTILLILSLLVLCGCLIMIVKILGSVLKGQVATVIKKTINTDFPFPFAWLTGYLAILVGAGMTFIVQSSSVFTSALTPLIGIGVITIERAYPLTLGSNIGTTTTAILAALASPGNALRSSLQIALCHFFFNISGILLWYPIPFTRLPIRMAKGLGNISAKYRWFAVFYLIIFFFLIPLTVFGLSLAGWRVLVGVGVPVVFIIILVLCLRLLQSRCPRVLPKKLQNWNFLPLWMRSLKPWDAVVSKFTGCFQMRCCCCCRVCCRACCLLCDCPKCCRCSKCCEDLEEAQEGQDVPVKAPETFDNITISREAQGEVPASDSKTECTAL
# T2: Construct 6 (NaPi2b del 317-333) (human, UniProt O95436 1-690)
# T2 construct: Deletion construct on HEK293-6e cells; also called CL_#29919
# T2 sequence: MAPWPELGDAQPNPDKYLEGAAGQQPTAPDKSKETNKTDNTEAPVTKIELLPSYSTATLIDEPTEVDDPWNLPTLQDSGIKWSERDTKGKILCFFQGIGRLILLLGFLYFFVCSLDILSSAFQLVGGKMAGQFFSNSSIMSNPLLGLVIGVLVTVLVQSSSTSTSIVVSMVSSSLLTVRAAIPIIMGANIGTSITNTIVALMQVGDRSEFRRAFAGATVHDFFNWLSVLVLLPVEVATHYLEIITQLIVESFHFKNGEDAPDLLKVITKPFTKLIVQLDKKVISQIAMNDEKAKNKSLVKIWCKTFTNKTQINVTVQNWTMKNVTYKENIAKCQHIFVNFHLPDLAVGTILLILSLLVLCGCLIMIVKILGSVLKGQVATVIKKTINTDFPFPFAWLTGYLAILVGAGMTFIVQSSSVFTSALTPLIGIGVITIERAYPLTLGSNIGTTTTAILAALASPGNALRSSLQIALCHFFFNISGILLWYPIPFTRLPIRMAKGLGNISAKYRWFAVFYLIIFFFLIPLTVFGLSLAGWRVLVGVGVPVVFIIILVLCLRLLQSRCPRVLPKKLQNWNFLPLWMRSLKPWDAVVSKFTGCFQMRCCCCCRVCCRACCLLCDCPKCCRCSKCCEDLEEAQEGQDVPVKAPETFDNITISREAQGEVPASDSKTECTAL
# T3: Construct 7 (NaPi2b del 317-326) (human, UniProt O95436 1-690)
# T3 construct: Deletion construct on HEK293-6e cells; also called CL_#29921
# T3 sequence: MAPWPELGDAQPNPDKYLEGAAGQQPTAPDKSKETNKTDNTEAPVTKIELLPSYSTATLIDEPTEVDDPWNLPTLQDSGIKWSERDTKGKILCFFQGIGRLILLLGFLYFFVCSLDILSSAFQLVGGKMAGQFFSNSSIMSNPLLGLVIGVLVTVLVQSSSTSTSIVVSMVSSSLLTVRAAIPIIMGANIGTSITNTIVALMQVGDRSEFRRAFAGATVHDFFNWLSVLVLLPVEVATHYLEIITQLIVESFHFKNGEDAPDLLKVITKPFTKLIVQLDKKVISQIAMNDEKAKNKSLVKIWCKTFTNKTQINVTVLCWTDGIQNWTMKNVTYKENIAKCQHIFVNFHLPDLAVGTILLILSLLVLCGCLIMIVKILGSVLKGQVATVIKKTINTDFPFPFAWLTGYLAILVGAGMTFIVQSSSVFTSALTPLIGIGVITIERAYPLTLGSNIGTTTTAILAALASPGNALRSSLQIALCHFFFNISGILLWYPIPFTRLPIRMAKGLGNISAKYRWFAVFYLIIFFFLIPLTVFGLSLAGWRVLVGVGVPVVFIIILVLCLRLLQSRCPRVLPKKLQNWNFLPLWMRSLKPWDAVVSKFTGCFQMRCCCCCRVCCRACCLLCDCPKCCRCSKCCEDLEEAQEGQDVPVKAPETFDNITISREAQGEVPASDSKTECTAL
# T4: human FcγR IIB Y160 CD32bY (v5777) (human, UniProt P31994 43-217, limits assumed)
# T4 construct: In-house reagent
# T4 sequence (looked up): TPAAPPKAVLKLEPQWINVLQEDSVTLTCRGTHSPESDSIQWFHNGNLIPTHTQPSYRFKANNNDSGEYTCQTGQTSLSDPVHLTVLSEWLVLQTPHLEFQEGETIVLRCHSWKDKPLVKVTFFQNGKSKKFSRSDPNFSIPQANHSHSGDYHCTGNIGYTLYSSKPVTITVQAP
# T5: human FcγR IIA H131 CD32aH (v5774) (human, UniProt P12318 34-217, limits assumed)
# T5 construct: In-house reagent
# T5 sequence (looked up): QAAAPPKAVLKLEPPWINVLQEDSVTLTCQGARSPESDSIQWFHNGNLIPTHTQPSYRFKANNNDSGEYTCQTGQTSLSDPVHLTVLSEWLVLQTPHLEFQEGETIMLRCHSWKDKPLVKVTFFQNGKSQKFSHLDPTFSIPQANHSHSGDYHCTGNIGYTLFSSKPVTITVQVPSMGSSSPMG
# T6: human FcγR IIA R131 CD32aR (v5775) (human, UniProt P12318 34-217, limits assumed)
# T6 construct: In-house reagent
# T6 sequence (looked up): T5 sequence (looked up) with H134R
# B1: v21995 (palivizumab, anti-RSV negative control) (antibody, human IgG1, kappa, V domains shown)
# VH: QVTLRESGPALVKPTQTLTLTCTFSGFSLSTSGMSVGWIRQPPGKALEWLADIWWDDKKDYNPSLKSRLTISKDTSKNQVVLKVTNMDPADTATYYCARSMITNWYFDVWGAGTTVTVSS
# VL: DIQMTQSPSTLSASVGDRVTITCKSQLSVGYMHWYQQKPGKAPKLLIYDTSKLASGVPSRFSGSGSGTEFTLTISSLQPDDFATYYCFQGSGYPFTFGGGTKLEIKR
# B2: v40554 (LALA) anti-NaPi2b antibody (antibody)
# chain 1: not shown
# chain 2: DVQMTQSPSSLSASVGDRVTITCRASQDVYSYLNWYQQKPGKAVKLLIYYTSRLQSGVPSRFSGSGSGTDYTLTISSLQPEDFATYYCQQYNIFPWTFGQGTKLEIKRTVAAPSVFIFPPSDEQLKSGTASVVCLLNNFYPREAKVQWKVDNALQSGNSQESVTEQDSKDSTYSLSSTLTLSKADYEKHKVYACEVTHQGLSSPVTKSFNRGEC
# Tests used:
# [1] = biological target: T1, human sodium-dependent phosphate …; test: flow cytometry on IGROV-1 cells (endogenous NaPi2b), 24 h at 4 C, anti-human IgG Fc AF647, APC-A GeoMean
# Experimental: Cells were maintained under standard culture conditions (37° C./5% CO₂) until assay set-up. […] Cells were removed from culture vessels using Cell Dissociation Buffer (Invitrogen, Waltham, MA), seeded at 50,000 cells/well in conical-bottom 96-well plates, and treated with test antibody or antibody-drug conjugate for 24 hours at 4° C. to prevent internalization. […] Following incubation and washing, fluorescence was detected by flow cytometry on a BD LSRFortessa™ Cell Analyzer (BD Biosciences, Franklin Lake, NJ) with 1,000 minimum events collected per well.
# [2] = biological target: T2, Construct 6 (NaPi2b del 317-333); test: flow cytometry, HEK293-6e cells transfected with Construct 6
# Experimental: (§1) Following transfection, cells were seeded at 50,000 cells/well in conical-bottom 96-well plates and treated with a serial dilution of test antibody for 24 hours at 4° C. to prevent internalization. Cells were treated with final concentrations of all humanized antibodies of 200, 20, or 2 nM. Cells were treated with final concentrations of the reference anti-NaPi2a rabbit antibody of 50, 5, or 0.5 nM. […] Following incubation and washing, fluorescence was detected by flow cytometry on a BD LSRFortessa™ Cell Analyzer (BD Biosciences, Franklin Lake, NJ) with 1,000 minimum events collected per well. […] Background-subtracted AF647 Mean Fluorescence Intensity (MFI) values were calculated by subtracting the average MFI of three technical replicates of unstained (no primary antibody) cells.
# [3] = biological target: T3, Construct 7 (NaPi2b del 317-326); test: flow cytometry, HEK293-6e cells transfected with Construct 7
# Experimental: as §1
# [4] = biological target: T4, human FcγR IIB Y160 CD32bY (v5777); test: SPR (Biacore T200), antibody captured on protein A, FcγR as analyte, single-cycle, steady-state fit;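 also: five FcγR concentrations per single cycle, 40 s association then 120 s dissociation, responses corrected against a reference flow cell and blank buffer injections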
# Experimental: (§2) Approximately 400-600 RUs of each antibody (2 μg/mL) were captured on the protein A surface on flow cell 2, 3 and 4 by injecting at 10 μL/min for 60 s. Flow cell 1 was used as a reference surface. […] Each in-house FcγR with five concentrations were flowed as analyte using single-cycle kinetics strategy. The flow rate of FcγRs was 50 L/min with contact time of 40 sec and dissociation time of 120 sec. For the high affinity FcγRI CD64, multicycle kinetics were applied. The flow rate of the analyte was 100 L/min with contact time of 100 sec and dissociation time of 650 sec. Blank buffer control was injected using the same flow rate and contact time for each cycle. Surface regeneration was accomplished using 10 mM glycine-HCl, pH 1.5 (Cytiva©, BR100354) for 30 sec with a flow rate of 50 μL/min after each cycle. Binding constants and the maximum observed binding signal (Rmax) were determined using the Biacore™ T200 Evaluation software (version 3.0; GE Healthcare). For single-cycle kinetics, blank-subtracted sensorgrams were analyzed using steady state affinity fitting model. For multicycle kinetics, results were fit to the 1:1 Langmuir binding model.
# [5] = biological target: T5, human FcγR IIA H131 CD32aH (v5774); test: as above
# Experimental: as §2
# [6] = biological target: T6, human FcγR IIA R131 CD32aR (v5775); test: as above
# Experimental: as §2
# [7] = biological target: T7, human FcγR IIIA V159 CD16aV (v5773) (human, UniProt P08637 17-208, limits assumed); test: as above
# T7 construct: In-house reagent
# Experimental: as §2
# [8] = biological target: T8, human FcγR I CD64 (Sino Biological Inc. 10256-H08H) (human, UniProt P12314 16-288); test: SPR (Biacore T200), antibody captured on protein A, FcγR as analyte, multicycle, 1:1 fit
# T8 construct: Bought reagent
# Experimental: as §2
# Biotinylated human FcRn = biological target: T9, Biotinylated human FcRn (human, UniProt P55899 24-297; P61769 21-119, limits assumed, biotinylated (site not stated)); test: SPR (Biacore T200), biotinylated FcRn on neutravidin, antibody as analyte, pH 5.9, steady-state fit
# T9 construct: also called Biotinlated human FcRn; human neonatal fragment crystallizable receptor (FcRn)
# T9 sequence (P55899 24-297 limits assumed, chain 1 of 2): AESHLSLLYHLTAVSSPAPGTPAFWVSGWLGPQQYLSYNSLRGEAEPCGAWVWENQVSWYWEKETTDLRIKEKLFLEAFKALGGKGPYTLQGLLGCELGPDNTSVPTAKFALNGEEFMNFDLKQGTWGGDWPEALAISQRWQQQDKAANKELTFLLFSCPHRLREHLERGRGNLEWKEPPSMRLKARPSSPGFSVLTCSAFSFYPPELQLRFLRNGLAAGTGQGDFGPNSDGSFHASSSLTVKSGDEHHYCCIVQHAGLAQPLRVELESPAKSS
# T9 sequence (P61769 21-119 limits assumed, chain 2 of 2): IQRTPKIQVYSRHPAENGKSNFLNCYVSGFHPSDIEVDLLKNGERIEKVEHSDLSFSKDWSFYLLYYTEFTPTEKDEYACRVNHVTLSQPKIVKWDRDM
# T8 sequence (P12314 16-288 limits assumed): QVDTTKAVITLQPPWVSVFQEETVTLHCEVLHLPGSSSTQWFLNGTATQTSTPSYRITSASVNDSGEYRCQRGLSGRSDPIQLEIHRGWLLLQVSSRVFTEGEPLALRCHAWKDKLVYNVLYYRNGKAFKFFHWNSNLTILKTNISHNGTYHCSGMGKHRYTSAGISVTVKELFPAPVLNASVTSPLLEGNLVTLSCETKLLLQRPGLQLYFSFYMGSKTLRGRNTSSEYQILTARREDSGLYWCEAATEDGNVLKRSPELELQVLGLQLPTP
# T7 sequence (P08637 17-208 F176V limits assumed): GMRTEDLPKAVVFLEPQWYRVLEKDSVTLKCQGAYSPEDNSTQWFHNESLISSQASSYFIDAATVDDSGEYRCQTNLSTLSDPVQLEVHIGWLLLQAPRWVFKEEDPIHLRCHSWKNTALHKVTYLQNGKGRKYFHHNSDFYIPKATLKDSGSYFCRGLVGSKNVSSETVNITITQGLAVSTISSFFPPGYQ
Binder,binding result [1],binding result [2],binding result [3],Binding percentage [4],Kd [4],Binding percentage [5],Kd [5],Binding percentage [6],Kd [6],Binding percentage [7],Kd [7],Binding percentage [8],Kd [8],Binding percentage (Biotinylated human FcRn),Kd (Biotinylated human FcRn)
B1,no binding (tested: 200 nM),no binding (tested: 200 nM),no binding (tested: 200 nM),–,–,–,–,–,–,–,–,–,–,–,–
B2,–,–,–,53.2%,48.7 µM,63.8%,29.2 µM,58%,29.3 µM,41.5%,4.02 µM,6.4%,0.00379 µM,27%,0.132 µM

# Source: patent US20260232827A1 (Zymeworks, published 2026)
